# Laboratory results published in patent US20210155941A1 (KITE PHARMA EU B V, published 2021).
# B1: A*02:01/HPV16 E711-19 human TCR (fully human constant regions) expressed on transduced T cells (TCR, V domains shown)
# V domain 1: GQNIDQPTEMTATEGAIVQINCTYQTSGFNGLFWYQQHAGEAPTFLSYNVLDGLEEKGRFSSFLSRSKGYSYLLLKELQMKDSASYLCASVDGNNRLAFGKGNQVVVIP
# V domain 2: DAGVTQSPTHLIKTRGQQVTLRCSPKSGHDTVSWYQQALGQGPQFIFQYYEEEERQRGNFPDRFSGHQFPNYSSELNVNALLLGDSALYLCASSLGWRGGRYNEQFFGPGTRLTVLE
# Target: HLA-A*02:01/HPV16 E7 11-19 (…) peptide-MHC complex on target cells (Human Papilloma virus serotype 16 …)
# Experiment: cell-based or functional assay
binder,measurement,value
B1,"EC50 of intracellular IFN-γ (ICCS, flow cytometry), CD4+ T cells td with the TCR vector lacking the miRαβ cassette, peptide-loaded T2 target cells",~52.4 nM
same,"EC50 of intracellular IFN-γ (ICCS, flow cytometry), CD4+ T cells td with the pMP71-miRαβ A*02:01/HPV16 E711-19 fHC TCR vector, peptide-loaded T2 target cells",~22.3 nM
same,"EC50 of intracellular IFN-γ (ICCS, flow cytometry), CD8+ T cells td with the TCR vector lacking the miRαβ cassette, peptide-loaded T2 target cells",~6.4 nM
same,"EC50 of intracellular IFN-γ (ICCS, flow cytometry), CD8+ T cells td with the miRαβ TCR vector (SEQ ID NO: 15), peptide-loaded T2 target cells",~3.4 nM
